pKd: −log10 of the molar value.
Each substance was assayed against TβRII-IgG Fc fusion protein (human) (UniProt P37173) (assay: capture assay on plate-immobilised TβRII-Fc, detection biotin anti-IL-2 / streptavidin-HRP, TMB 450 nm; Kd from the capture curve).

masked TGF-β1 construct, IL-2 - IgG scaffold - TβRII(Δ25, D118A, D32N) mask - TGF-β1, sequence (P01137 other isoform, or with tags, fused parts or gaps, stated change not applied): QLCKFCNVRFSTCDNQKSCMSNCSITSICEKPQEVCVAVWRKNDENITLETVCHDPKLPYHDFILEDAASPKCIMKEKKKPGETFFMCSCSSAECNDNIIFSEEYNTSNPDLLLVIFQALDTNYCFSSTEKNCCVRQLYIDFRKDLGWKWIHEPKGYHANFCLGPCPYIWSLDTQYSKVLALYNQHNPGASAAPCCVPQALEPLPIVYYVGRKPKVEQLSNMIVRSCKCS
masked TGF-β1 construct, IL-2 - IgG scaffold - TβRII(Δ25, D118A) mask - TGF-β1, sequence (P01137 other isoform, or with tags, fused parts or gaps, stated change not applied): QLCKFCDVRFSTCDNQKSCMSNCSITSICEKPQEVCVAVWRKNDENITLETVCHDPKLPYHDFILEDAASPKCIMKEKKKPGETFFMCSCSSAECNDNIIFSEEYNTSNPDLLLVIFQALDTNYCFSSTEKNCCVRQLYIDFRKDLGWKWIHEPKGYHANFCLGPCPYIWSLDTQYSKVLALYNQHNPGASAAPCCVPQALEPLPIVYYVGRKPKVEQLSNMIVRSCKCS
masked TGF-β1 construct, IL-2 - IgG scaffold - TβRII(Δ25, D118A, E55A) mask - TGF-β1, sequence (P01137 other isoform, or with tags, fused parts or gaps, stated change not applied): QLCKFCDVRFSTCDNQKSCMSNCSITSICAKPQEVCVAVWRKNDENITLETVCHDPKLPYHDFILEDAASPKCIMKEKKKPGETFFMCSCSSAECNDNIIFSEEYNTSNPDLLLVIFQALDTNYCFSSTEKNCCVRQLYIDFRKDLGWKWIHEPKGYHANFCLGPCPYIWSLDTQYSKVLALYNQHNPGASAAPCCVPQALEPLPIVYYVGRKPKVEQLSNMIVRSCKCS
masked TGF-β1 construct, IL-2 - IgG scaffold - TβRII(Δ25, D118A, S52L) mask - TGF-β1, sequence (P01137 other isoform, or with tags, fused parts or gaps, stated change not applied): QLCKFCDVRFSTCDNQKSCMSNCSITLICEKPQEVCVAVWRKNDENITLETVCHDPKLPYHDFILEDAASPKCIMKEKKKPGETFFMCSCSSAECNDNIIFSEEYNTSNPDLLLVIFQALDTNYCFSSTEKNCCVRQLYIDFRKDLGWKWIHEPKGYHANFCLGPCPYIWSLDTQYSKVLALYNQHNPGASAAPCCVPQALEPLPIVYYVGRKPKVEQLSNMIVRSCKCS

| pKd | Substance |
| --- | --- |
| 5.82 | masked TGF-β1 construct, IL-2 - IgG scaffold - TβRII(Δ25, D118A) mask - TGF-β1 (from UniProt P01137 279-390) (Fc fusion) |
| 5.23 | masked TGF-β1 construct, IL-2 - IgG scaffold - TβRII(Δ25, D118A, D32N) mask - TGF-β1 (from UniProt P01137 279-390) (Fc fusion) |
| 5.52 | masked TGF-β1 construct, IL-2 - IgG scaffold - TβRII(Δ25, D118A, E55A) mask - TGF-β1 (from UniProt P01137 279-390) (Fc fusion) |
| 3.81 | masked TGF-β1 construct, IL-2 - IgG scaffold - TβRII(Δ25, D118A, S52L) mask - TGF-β1 (from UniProt P01137 279-390) (Fc fusion) |
